# Measurements: patent US20210380703A1 (RIGEL PHARMACEUTICALS, published 2021)
# Changes are numbered by the printed parent chain.
# B1: 369_E09 (antibody, V domains shown)
# VH: EVQLLESGGGLVQPGGSLRLSCAASGFTFDSYSMNWVRQAPGKGLEWVSNINYNSGYKGYADSVKGRFTISRDNSKNTLYLQMNSLRAEDTAVYYCARSATWHDTHLDYWGQGTLVTVSS
# VL: DIQMTQSPSSLSASVGDRVTITCRASQSILSYLNWYQQKPGKAPKLVIYAATSRASGVPSRFSGSGSGTDFTLTISSLQPEDFATYYCQQSYDLPLTFGGGTKVEIK
# notes: VH and VL only
# B2: 374_G02 (antibody, V domains shown)
# VH: B1 VH with N50G, K58T, G59S
# VL: B1 VL with S31T, V47L, T52S, R54L, A55Q, L94T
# notes: VH and VL only
# B3: 373_E08 (antibody, V domains shown)
# VH: B1 VH with S33G, N50G, K58T, G59S
# VL: B1 VL with L30V, L33V, V47L, A51V, D93E, L94S
# notes: VH and VL only
# B4: 374_E04 (antibody, V domains shown)
# VH: B1 VH with D30S, N50G, G59S
# VL: B1 VL with V47L, A51V, D93N, L94N
# notes: VH and VL only
# B5: 374_C07 (antibody, V domains shown)
# VH: B1 VH with S55G, K58T, G59S
# VL: B1 VL with L30I, V47L, Y92D, D93E
# notes: VH and VL only
# B6: 375_G12 (antibody, V domains shown)
# VH: B1 VH with S33G, N35H, N50S, S55G, K58T, G59S
# VL: B1 VL with L30V, L33V, V47L, A55H, L94T
# notes: VH and VL only
# B7: 373_F02 (antibody, V domains shown)
# VH: B1 VH with N50G, G59S
# VL: B1 VL with S31T, V47L, L94T
# notes: VH and VL only
# B8: 374_A08 (antibody, V domains shown)
# VH: B1 VH with K58T, G59S
# VL: B1 VL with L30V, S31T, V47L, R54L
# notes: VH and VL only
# B9: 374_G12 (antibody, V domains shown)
# VH: B1 VH with S31D, S33G, N50S, S55G, G59S
# VL: B1 VL with S31T, L33V, R54L, D93N, L94S
# notes: VH and VL only
# B10: 374_F09 (antibody, V domains shown)
# VH: B1 VH with D30S, S33G, N50S, K58T, G59S
# VL: B1 VL with L30S, L33V, V47L, D93S, L94T
# notes: VH and VL only
# B11: 373_D02 (antibody, V domains shown)
# VH: B1 VH with D30S
# VL: B1 VL with V47L, R54L
# notes: VH and VL only
# B12: 376_G01 (antibody, V domains shown)
# VH: B1 VH with S31D, N50G, G59S
# VL: B1 VL with L33V, A51V, D93E
# notes: VH and VL only
# B13: 371_B05 (antibody, V domains shown)
# VH: B1 VH with D30S, N50G, K58T, G59S
# VL: B1 VL with S31T, R54L, Y92D, D93E, L94T
# notes: VH and VL only
# B14: 375_G10 (antibody, V domains shown)
# VH: B1 VH with D30S, S33G, N50S, S55G, G59S
# VL: B1 VL with L30V, S31T, A55H, L94T
# notes: VH and VL only
# B15: 375_B10 (antibody, V domains shown)
# VH: B1 VH with N50G, K58T, G59S
# VL: B1 VL with V47L, A55H
# notes: VH and VL only
# B16: 371_F12 (antibody, V domains shown)
# VH: B1 VH with S55G, G59S
# VL: B1 VL with L30I, V47L, Y92N, D93N
# notes: VH and VL only
# B17: 374_E06 (antibody, V domains shown)
# VH: B1 VH with N50S
# VL: B1 VL with V47L
# notes: VH and VL only
# B18: 371_B10 (antibody, V domains shown)
# VH: B1 VH with S55G, K58T
# VL: B1 VL with L30V, L33V, V47L
# notes: VH and VL only
# B19: 374_B11 (antibody, V domains shown)
# VH: B1 VH with D30S, N50G, G59S
# VL: B1 VL with S31T, L33V
# notes: VH and VL only
# B20: 374_D11 (antibody, V domains shown)
# VH: B1 VH with S33G, K58T
# VL: B1 VL with S31T, V47L, D93E, L94T
# notes: VH and VL only
# B21: 369_H11 (antibody, V domains shown)
# VH: B1 VH with D30S, S31D, S33G, N50S, S55G, K58T
# VL: B1 VL with V47L, A55H
# notes: VH and VL only
# B22: 370_A10 (antibody, V domains shown)
# VH: B1 VH with D30S, S31D, N50S
# VL: B1 VL with L33V, V47L, R54L, L94T
# notes: VH and VL only
# B23: 373_A07 (antibody, V domains shown)
# VH: B1 VH with D30S, S55G, K58T
# VL: B1 VL with S31T, L33V, V47L, Y92D, D93N
# notes: VH and VL only
# B24: 373_H12 (antibody, V domains shown)
# VH: B1 VH with D30S, S31D, N50G
# VL: B1 VL with S31T, V47L, D93N, L94S
# notes: VH and VL only
# B25: 374_E03 (antibody, V domains shown)
# VH: B1 VH with D30S
# VL: B1 VL with S31T, L33V, R54L, L94T
# notes: VH and VL only
# B26: 376_C07 (antibody, V domains shown)
# VH: B1 VH with D30S, N50G
# VL: B1 VL with L33V, V47L, A55H
# notes: VH and VL only
# B27: 376_E09 (antibody, V domains shown)
# VH: B1 VH with N50G, G59S
# VL: B1 VL with S31T, V47L, A55H, L94T
# notes: VH and VL only
# B28: 369_G09 (antibody, V domains shown)
# VH: B1 VH with S55G, K58T
# VL: B1 VL with L30V, S31T, V47L
# notes: VH and VL only
# B29: 375_F01 (antibody, V domains shown)
# VH: B1 VH with D30S, N50S, K58T
# VL: B1 VL with L30V, L94N
# notes: VH and VL only
# B30: 372_H03 (antibody, V domains shown)
# VH: B1 VH with S33G, S55G, G59S
# VL: B1 VL with L30I, S31T, L33V, V47L, R54L, D93N
# notes: VH and VL only
# B31: 374_G01 (antibody, V domains shown)
# VH: B1 VH with K58T, G59S
# VL: B1 VL with S31T, L33V, V47L, A51T, A55H, D93N
# notes: VH and VL only
# B32: 370_D07 (antibody, V domains shown)
# VH: B1 VH with D30S, S33G, K58T
# VL: B1 VL with L33V, R54L, D93E, L94S
# notes: VH and VL only
# B33: 373_D09 (antibody, V domains shown)
# VH: B1 VH with N50G, K58T, G59S
# VL: B1 VL with S31T, A55H, D93E, L94N
# notes: VH and VL only
# B34: 376_A01 (antibody, V domains shown)
# VH: B1 VH with S33G, S55G, K58T
# VL: B1 VL with L30V, V47L, D93S, L94T
# notes: VH and VL only
# B35: 369_F04 (antibody, V domains shown)
# VH: B1 VH with D30S, S33G, N50G, S55G, K58T, G59S
# VL: B1 VL with L30I, L33V, V47L, A55H, L94N
# notes: VH and VL only
# B36: 370_A08 (antibody, V domains shown)
# VH: B1 VH with N50S, K58T
# VL: B1 VL with L30V, S31T
# notes: VH and VL only
# Biological target: T1, biotinylated goat anti-human kappa light chain
# T1 construct: Positive control of the ELISA
# Assay: ELISA, positive control
# Outline: (§1)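 Monoclonal antibodies were first applied to human or mouse ACVR2A, alongside biotinylated goat anti-human kappa light chain (positive control) and human Fc (negative control); binding was then determined by ELISA.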
# Further: test concentration or dose not given here.
row,optical density [OD],Binder
1,3.48,B1
2,3.17,B2
3,3.2,B3
4,3.19,B4
5,3.22,B5
6,3.3,B6
7,3.15,B7
8,2.94,B8
9,3.15,B9
10,3.14,B10
11,3.19,B11
12,3.18,B12
13,1.65,B13
14,3.3,B14
15,3.14,B15
16,3.62,B16
17,3.25,B17
18,3.44,B18

row,optical density [OD],Binder
1,3.17,B19
2,2.9,B20
3,2.21,B21
4,3.47,B22
5,3.11,B23
6,3,B24
7,3.13,B25
8,3.42,B26
9,3.48,B27
10,3.6,B28
11,2.96,B29
12,3.64,B30
13,2.92,B31
14,3.38,B32
15,3.04,B33
16,2.98,B34
17,3.46,B35
18,3.52,B36

# Biological target: mouse ACVR2A (mouse, UniProt P27038 20-135, limits assumed)
# Assay: ELISA
# Outline: as §1
# Chain of mouse ACVR2A (P27038 20-135 limits assumed): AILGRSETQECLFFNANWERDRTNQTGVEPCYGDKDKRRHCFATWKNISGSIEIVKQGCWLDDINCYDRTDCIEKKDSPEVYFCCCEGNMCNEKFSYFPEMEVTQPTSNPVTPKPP
row,optical density [OD],Binder
1,3.77,B1
2,3.54,B2
3,3.23,B3
4,3.72,B4
5,3.7,B5
6,3.29,B6
7,3.6,B7
8,3.67,B8
9,3.21,B9
10,3.62,B10
11,3.65,B11
12,3.66,B12
13,1.24,B13
14,3.64,B14
15,3.74,B15
16,2.3,B16
17,3.75,B17
18,3.36,B18

row,optical density [OD],Binder
1,3.66,B19
2,3.58,B20
3,1.64,B21
4,2.88,B22
5,3.59,B23
6,2.98,B24
7,3.79,B25
8,3.71,B26
9,3.76,B27
10,3.27,B28
11,3.46,B29
12,2.7,B30
13,3.6,B31
14,3.14,B32
15,3.5,B33
16,3.66,B34
17,2.17,B35
18,2.33,B36

# Biological target: T2, human ACVR2A (human, UniProt P27037 20-135, limits assumed)
# T2 construct: also called activin receptor, type II A
# Assay: ELISA
# Outline: as §1
# T2 sequence (P27037 20-135 limits assumed): as the sequence (P27038 20-135 limits assumed) above, with R20K, I73V counted along it
row,optical density [OD],Binder
1,3.63,B1
2,3.52,B2
3,2.97,B3
4,3.74,B4
5,3.65,B5
6,3.36,B6
7,3.62,B7
8,3.59,B8
9,3.19,B9
10,3.53,B10
11,3.73,B11
12,3.34,B12
13,1.05,B13
14,3.48,B14
15,3.65,B15
16,2.47,B16
17,3.84,B17
18,3.31,B18

row,optical density [OD],Binder
1,3.69,B19
2,3.64,B20
3,1.45,B21
4,2.58,B22
5,3.52,B23
6,3.06,B24
7,3.72,B25
8,3.7,B26
9,3.74,B27
10,3.36,B28
11,3.16,B29
12,2.32,B30
13,3.34,B31
14,2.81,B32
15,3.46,B33
16,3.24,B34
17,1.95,B35
18,2.41,B36
